This assay has as its target T1, Extracellular domain (ECD) of the canine IL-4 receptor alpha-V5 epitope-AviTag-His Tag (canine).
T1 construct: monomeric form isolated by size exclusion; also called canine IL-4RA-V5-Avi-His; canine IL-4RA
T1 chain: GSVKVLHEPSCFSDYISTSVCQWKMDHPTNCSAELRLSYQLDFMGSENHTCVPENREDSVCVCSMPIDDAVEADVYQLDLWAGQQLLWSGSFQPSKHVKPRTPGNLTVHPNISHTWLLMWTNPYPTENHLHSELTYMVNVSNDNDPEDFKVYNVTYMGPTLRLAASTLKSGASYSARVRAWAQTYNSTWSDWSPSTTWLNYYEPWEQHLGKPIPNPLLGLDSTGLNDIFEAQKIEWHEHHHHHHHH
Nature of the assay: SPR, Fab-SASA captured on BSA.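 Note: biacore T200 SPR, Fab-SASA variants from E. coli conditioned medium captured on BSA-coated CM5 chip, canine IL-4RA injected 120 s then 420 s dissociation, 1:1 model fit.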

Description: Forty-four PML clones were selected from each library for expression in E. coli in 96 deep-well plates by inoculating into 2YT medium and inducing with 0.2 mM IPTG overnight at room temperature. The Fab secreted in the medium was analyzed for binding activity by completing an ELISA. […] The 39 unique clones were confirmed by an off-rate screening assay in an SPR assay performed on a Biacore T200. For the SPR analyses, bovine serum albumin (BSA) was immobilized to CM5 sensor chip. The sensor chip surface was activated with 50 mmol/L H-Hydroxysuccinimide and 200 mmol/L 1-ethyl-3-(3-dimethylaminopropyl) carbodiimide hydrochloride for 420 s. Afterwards, BSA diluted in 10 mM sodium acetate, pH 4.5 was injected. After the amine coupling reaction, the remaining active coupling sites on the chip surface were blocked with 1 mM ethanolamine hydrochloride. The selected Fab-SASA variants in conditioned medium were captured on the BSA-coated chips. The running buffer was HBS-EP (10 mM HEPES 500 mM NaCl, 3 mM EDTA, 0.05% Tween 20, pH 7.4). After equilibration, canine IL-4RA was injected for 120 seconds (association phase) followed by the injection of running buffer for 420 sec (dissociation phase). The off-rates of the Fab-SASA clones were obtained from fitting the experimental data locally to a 1:1 interaction model using the Biacore T200 evaluation software.

B1: TB640_005 Fab-SASA VL-Q27L (Fab, V domains shown)
VH: EVQLVESGGDLVKPGGSLRLSCVASGFTFRDYAMTWVRQAPGKGLQWVSLISGSGGKTYYADAVKGRFTISRDNAKNTLYLQMNSLRAEDTAVYYCAVDRLTKTIRPQYYGLWVWGQGTLVTVSS
VL: DIVMTQTPLSLSVSPGETASISCRSSLSLLYSIGYNYLDWYLQKPGQSPQGLIYLGSKRASGVPDRFSGSGSGTDFTLRISRVEANDTGVYYCMQGLQSPLTFGQGTKLEIKR
notes: not shown: SASA tag then His-tag
One may read the Kd as the constant that tells how readily two partners part at equilibrium. The low end stands for a tighter complex, the high end for a looser complex. One may read the koff as a measure of how fast the partners let go of each other. Higher therefore signals a short-lived complex. As a reminder, the kon is a measure of how fast the partners come together. A low value points to slow association. For B1, the Kd turned out to be 15.5 nM, the “Ratio WT-kd/clone-kd” value amounted to 0.96, the koff amounted to 0.000996 s⁻¹ and the kon came out at 64200 M⁻¹ s⁻¹.

B2: TB640_005 Fab-SASA VL-T102S (Fab, V domains shown)
VH: EVQLVESGGDLVKPGGSLRLSCVASGFTFRDYAMTWVRQAPGKGLQWVSLISGSGGKTYYADAVKGRFTISRDNAKNTLYLQMNSLRAEDTAVYYCAVDRLTKTIRPQYYGLWVWGQGTLVTVSS
VL: DIVMTQTPLSLSVSPGETASISCRSSQSLLYSIGYNYLDWYLQKPGQSPQGLIYLGSKRASGVPDRFSGSGSGTDFTLRISRVEANDTGVYYCMQGLQSPLSFGQGTKLEIKR
notes: as for B1
With B2, the affinity, expressed as Kd, was 6.61 nM; the “Ratio WT-kd/clone-kd” value was 1.94; the koff came to 0.000492 s⁻¹; the kon is 74400 M⁻¹ s⁻¹.

B3: TB640_005 Fab-SASA VL-Q27T (Fab, V domains shown)
VH: EVQLVESGGDLVKPGGSLRLSCVASGFTFRDYAMTWVRQAPGKGLQWVSLISGSGGKTYYADAVKGRFTISRDNAKNTLYLQMNSLRAEDTAVYYCAVDRLTKTIRPQYYGLWVWGQGTLVTVSS
VL: DIVMTQTPLSLSVSPGETASISCRSSTSLLYSIGYNYLDWYLQKPGQSPQGLIYLGSKRASGVPDRFSGSGSGTDFTLRISRVEANDTGVYYCMQGLQSPLTFGQGTKLEIKR
notes: as for B1
On to B3, for which the Kd is 15.9 nM, the “Ratio WT-kd/clone-kd” value was 0.86, the koff worked out at 0.00111 s⁻¹ and the kon came out at 69700 M⁻¹ s⁻¹.

B4: TB640_005 Fab-SASA VL-S57H (Fab, V domains shown)
VH: EVQLVESGGDLVKPGGSLRLSCVASGFTFRDYAMTWVRQAPGKGLQWVSLISGSGGKTYYADAVKGRFTISRDNAKNTLYLQMNSLRAEDTAVYYCAVDRLTKTIRPQYYGLWVWGQGTLVTVSS
VL: DIVMTQTPLSLSVSPGETASISCRSSQSLLYSIGYNYLDWYLQKPGQSPQGLIYLGHKRASGVPDRFSGSGSGTDFTLRISRVEANDTGVYYCMQGLQSPLTFGQGTKLEIKR
notes: as for B1
As for B4, binding was put at a Kd of 8.2 nM, the “Ratio WT-kd/clone-kd” value is 1.41, the koff came out at 0.000677 s⁻¹ and the kon came out at 82600 M⁻¹ s⁻¹.

B5: TB640_005 Fab-SASA VL-Q95N (Fab, V domains shown)
VH: EVQLVESGGDLVKPGGSLRLSCVASGFTFRDYAMTWVRQAPGKGLQWVSLISGSGGKTYYADAVKGRFTISRDNAKNTLYLQMNSLRAEDTAVYYCAVDRLTKTIRPQYYGLWVWGQGTLVTVSS
VL: DIVMTQTPLSLSVSPGETASISCRSSQSLLYSIGYNYLDWYLQKPGQSPQGLIYLGSKRASGVPDRFSGSGSGTDFTLRISRVEANDTGVYYCMNGLQSPLTFGQGTKLEIKR
notes: as for B1
Consider B5, for which the Kd was found to be 4.15 nM, the “Ratio WT-kd/clone-kd” value was 1.99, the koff amounted to 0.00048 s⁻¹ and the kon is 116000 M⁻¹ s⁻¹.

B6: TB640_005 Fab-SASA VL-S57N (Fab, V domains shown)
VH: EVQLVESGGDLVKPGGSLRLSCVASGFTFRDYAMTWVRQAPGKGLQWVSLISGSGGKTYYADAVKGRFTISRDNAKNTLYLQMNSLRAEDTAVYYCAVDRLTKTIRPQYYGLWVWGQGTLVTVSS
VL: DIVMTQTPLSLSVSPGETASISCRSSQSLLYSIGYNYLDWYLQKPGQSPQGLIYLGNKRASGVPDRFSGSGSGTDFTLRISRVEANDTGVYYCMQGLQSPLTFGQGTKLEIKR
notes: as for B1
For B6, binding was characterised by a dissociation constant (Kd) of 8.8 nM, the “Ratio WT-kd/clone-kd” value amounted to 1.32, the koff was 0.00072 s⁻¹ and the kon is 81800 M⁻¹ s⁻¹.

B7: TB640_005 Fab-SASA VL-T102L (Fab, V domains shown)
VH: EVQLVESGGDLVKPGGSLRLSCVASGFTFRDYAMTWVRQAPGKGLQWVSLISGSGGKTYYADAVKGRFTISRDNAKNTLYLQMNSLRAEDTAVYYCAVDRLTKTIRPQYYGLWVWGQGTLVTVSS
VL: DIVMTQTPLSLSVSPGETASISCRSSQSLLYSIGYNYLDWYLQKPGQSPQGLIYLGSKRASGVPDRFSGSGSGTDFTLRISRVEANDTGVYYCMQGLQSPLLFGQGTKLEIKR
notes: as for B1
Turning to B7, the Kd is 6.53 nM, the “Ratio WT-kd/clone-kd” value turned out to be 1.7, the koff stood at 0.000562 s⁻¹ and the kon worked out at 86000 M⁻¹ s⁻¹.

B8: TB640_005 Fab-SASA VL-Y35M (Fab, V domains shown)
VH: EVQLVESGGDLVKPGGSLRLSCVASGFTFRDYAMTWVRQAPGKGLQWVSLISGSGGKTYYADAVKGRFTISRDNAKNTLYLQMNSLRAEDTAVYYCAVDRLTKTIRPQYYGLWVWGQGTLVTVSS
VL: DIVMTQTPLSLSVSPGETASISCRSSQSLLYSIGMNYLDWYLQKPGQSPQGLIYLGSKRASGVPDRFSGSGSGTDFTLRISRVEANDTGVYYCMQGLQSPLTFGQGTKLEIKR
notes: as for B1
In the case of B8, the Kd was found to be 8.34 nM, the “Ratio WT-kd/clone-kd” value was determined as 1.02, the koff amounted to 0.000932 s⁻¹ and the kon amounted to 112000 M⁻¹ s⁻¹.

B9: TB640_005 Fab-SASA VL-T102G (Fab, V domains shown)
VH: EVQLVESGGDLVKPGGSLRLSCVASGFTFRDYAMTWVRQAPGKGLQWVSLISGSGGKTYYADAVKGRFTISRDNAKNTLYLQMNSLRAEDTAVYYCAVDRLTKTIRPQYYGLWVWGQGTLVTVSS
VL: DIVMTQTPLSLSVSPGETASISCRSSQSLLYSIGYNYLDWYLQKPGQSPQGLIYLGSKRASGVPDRFSGSGSGTDFTLRISRVEANDTGVYYCMQGLQSPLGFGQGTKLEIKR
notes: as for B1
In the case of B9, the affinity, expressed as Kd, was 5.74 nM; the “Ratio WT-kd/clone-kd” value came out at 2.11; the koff was found to be 0.000451 s⁻¹; the kon came to 78500 M⁻¹ s⁻¹.

B10: TB640_005 Fab-SASA VL-T102N (Fab, V domains shown)
VH: EVQLVESGGDLVKPGGSLRLSCVASGFTFRDYAMTWVRQAPGKGLQWVSLISGSGGKTYYADAVKGRFTISRDNAKNTLYLQMNSLRAEDTAVYYCAVDRLTKTIRPQYYGLWVWGQGTLVTVSS
VL: DIVMTQTPLSLSVSPGETASISCRSSQSLLYSIGYNYLDWYLQKPGQSPQGLIYLGSKRASGVPDRFSGSGSGTDFTLRISRVEANDTGVYYCMQGLQSPLNFGQGTKLEIKR
notes: as for B1
Regarding B10, the Kd came out at 6.83 nM, the “Ratio WT-kd/clone-kd” value turned out to be 1.74, the koff came out at 0.000548 s⁻¹ and the kon was 80100 M⁻¹ s⁻¹.

B11: TB640_005 Fab-SASA VL-S57T (Fab, V domains shown)
VH: EVQLVESGGDLVKPGGSLRLSCVASGFTFRDYAMTWVRQAPGKGLQWVSLISGSGGKTYYADAVKGRFTISRDNAKNTLYLQMNSLRAEDTAVYYCAVDRLTKTIRPQYYGLWVWGQGTLVTVSS
VL: DIVMTQTPLSLSVSPGETASISCRSSQSLLYSIGYNYLDWYLQKPGQSPQGLIYLGTKRASGVPDRFSGSGSGTDFTLRISRVEANDTGVYYCMQGLQSPLTFGQGTKLEIKR
notes: as for B1
With B11, the Kd stood at 15 nM, the “Ratio WT-kd/clone-kd” value came out at 0.91, the koff worked out at 0.00105 s⁻¹ and the kon is 70400 M⁻¹ s⁻¹.

The record behind these values is patent US20250188176A1 (INVETX, published 2025).
